Reference: patent US20150110806A1

Target: CD147 expressed on human endothelial cells (hCMEC/D3, hBMEC) and human brain sections (human) (UniProt P35613)
Test: cell-based or functional assay

Substance | bacterial adhesion to hCMEC/D3 cells (wild-type Nm, cells pretreated with 10 µg/ml MBP-pilin) [% reduction] | initial attachment of Nm to hBMEC cells under flow conditions (10 µg/ml antibody)
MBP-PilE (from UniProt P0AEX9 27-392) | 60 | –
MBP-PilV | 50 | –
anti-CD147 antibody MEM-M6/1 | – | 20 % reduction
anti-CD147 antibody MEM-M6/6 | – | 75 % inhibition
